According to paper PMC5723433, “Identification and characterization of a novel zebrafish (Danio rerio) pentraxin–carbonic anhydrase” (PeerJ, 2017):

Experiments:
[1] = target: zebrafish (Danio rerio) carbonic anhydrase VI-pentraxin (CA VI–PTX), recombinant (zebrafish (Danio rerio)); test: SEC + other: static and dynamic light scattering (LC-SLS-DLS); 50 ug protein injected on Superdex 200 5/150 in 50 mM NaH3PO4, 500 mM NaCl pH 8, 0.1 ml/min, 20 °C; MW from standard proteins (SEC) and from light-scattering intensity calibrated on monomeric BSA (SLS); Rh from DLS
[2] = target: the molecule itself; test: not stated; unpublished data, preliminary result; protein in solution

| stoichiometry N [1] | Molecule | stoichiometry N [2] |
| --- | --- | --- |
| 5 | zebrafish (Danio rerio) carbonic anhydrase VI-pentraxin (CA VI–PTX), recombinant (enzyme) | – |
| – | human carbonic anhydrase VI (CA VI) (enzyme, UniProt P23280-1 18-308, looked up, carbonic anhydrase VI, human; Only an unpublished preliminary result is told (A. Yrjänäinen, 2017); also called human CA VI; gustin) QHVSDWTYSEGALDEAHWPQHYPACGGQRQSPINLQRTKVRYNPSLKGLNMTGYETQAGEFPMVNNGHTVQISLPSTMRMTVADGTVYIAQQMHFHWGGASSEISGSEHTVDGIRHVIEIHIVHYNSKYKSYDIAQDAPDGLAVLAAFVEVKNYPENTYYSNFISHLANIKYPGQRTTLTGLDVQDMLPRNLQHYYTYHGSLTTPPCTENVHWFVLADFVKLSRTQVWKLENSLLDHRNKTIHNDYRRTQPLNHRVVESNFPNQEYTLGSEFQFYLHKIEEILDYLRRALN | 2 |
